Laboratory results published in US8088892B2, “Inhibitors of proteins from the Rho-GEF family” (Centre National de la Recherche Scientifique (C.N.R.S.), priority 2002, dated 2012).

What was measured:
Full length Trio (RhoA) = biological target: T1, Full length Trio (RhoA) (Homo sapiens, UniProt O75962); test: Yeast Exchange Assay (YEA), full length Trio on RhoA; assay type: cell-based; set-up: key: “+ +” represents a slight activation of the reporter gene; “+ + + +” represents a strong activation of the reporter gene; “−” represents no activation of the reporter gene; conditions: +TRIPα (−TRIPα: −)
T1 construct: Full length Trio was introduced into the YEA; expressed in transfected cells; host or cells: yeast strain TAT7
Text: The wild type GTPase is fused to the LexA DNA binding domain (Matchmaker GAL4 two-hybrid, Clontech Laboratories, Inc., USA) and the effector to the […] (Matchmaker GAL4 two-hybrid, Clontech, Inc., USA). Under these conditions, no binding occurs in the TAT7 strain (De Toledo et al., 2000). Upon addition of a third plasmid expressing the GEF, the GTPase gets activated and binds to its effector, thus leading to the transactivation of the reporter gene LacZ.
Full length Trio was introduced into the YEA and tested for its ability to activate RhoA and RhoG respectively, in the presence or absence of TRIPα. The table below summarizes the effect of TRIPα on Trio as schematized in this Figure.
In order to better characterise the effect of TRIAPα on the Trio full length RhoGEF activity, the yeast exchange assay (YEA) was used, which is a quick and quantitative test derived from the classical two-hybrid system allowing to measure Rho-GEF activity and specificity (De Toledo et al., 2000). This functional assay is based on the fact that the GTPase binds to its effector only if it is activated by a RhoGEF. Briefly, yeasts are transformed with the GTPase fused to the LexA binding domain (LexA), and its effector to the GAL-4 Activating Domain (GAD), and with the adequate Rho-GEF partner in the yeast strain TAT7 (FIG. 7). […]

Vav = test: Binding specificity of aptamers in yeast; set-up: key: +++^1 and +^1 represent respectively a full and a partial (see FIG. 1) binding capacity; +++^1 and +^1 represent respectively a full and a partial (see FIG. 1) binding capacity; −−^1 represents a lack of binding; conditions: RhoGEF Vav
Text: Trx represents the thioredoxin protein with no inserted peptide.
In order to identify specific inhibitors of TrioGEFD2, a recently developed strategy was used, this strategy being derived from the yeast two hybrid system, where the cDNA library of preys has been replaced by a combinatorial library of short peptides (20 amino acids) in fusion with the bacterial protein thioredoxin A (Colas et al., 1996). This strategy has been successfully used to isolate specific inhibitors of the cyclin-dependent kinases (Cdks), the cell cycle transcription factor E2F, or the viral HPV16 E6 oncoprotein and HBEV core protein (Colas et al., 1996; Butz et al., 2001; Fabrizzio et al., 1999; Geyer et al., 2000). The TrioGEFD2 bait was constructed as follows: plasmid pMTHATrio1848-2298 (Bellanger et al., 1998) was digested with EcoRI/XhoI and the insert cloned in pEG202EcoRI/XhoI to generate the bait pEG202TroGEFD2. Yeast strain EGY048 (Colas et al., 1996) was transformed with pEG202TrioGEFD2 and subsequently with the library of Thioredoxin constrained aptamers according to standard procedures (Ito et al., 1983). After transformation, cells were allowed to recover for 4 hours in galactose containing medium before plating on selective galactose medium. Of the 2×10^6 screened colonies, those growing in the selective medium were recovered and retested for interaction. […] Binding specificity was investigated by screening for interaction with the following baits: TrioDH2 (a.a. 1848-2096), TrioPH2 (a.a. 2107-2223), TrioGEFD1 (a.a. 1232-1629), Dbl (a.a. 498-826), Vav (ala. 172-598) (Zhang et al, 1994), GEFD2 domain of Kalirin (a.a. 1640-1980)(Penzes et al., 2001), p115RhoGEF (a.a. 391-870)(Wells et al, 2002) and PDZRhoGEF (a.a. 964-1362) (Fukuhara et al., 1999). None of these aptamers interacted with other RhoGEF members such as Dbl, Vav, and the RhoA-specific GEFs p115RhoGEF and PDZRhoGEF.

| activation of the reporter gene by full length Trio, RhoA (Full length Trio (RhoA)) | Binding in yeast (Vav) | Molecule |
| --- | --- | --- |
| − |  | AREGADGAICGYNLATLVMLGPSERVFCPLCEPCSSDIYELM [TRIPα, 42-amino acid peptide corresponding to the variable region of TRIAPα] |
|  | −−^1 | TRIAPα: aptamer of 154 amino acids: variable region of 42 amino acids inserted into the thioredoxin protein; tested as GST fusion (protein) MSDKIIHLTDDSFDTDVLKADGAILVDFWAEWCGPAREGADGAICGYNLATLVMLGPSERVFCPLCEPCSSDIYELMGPCKMIAPILDEIADEYQGKLTVAKLNIDQNPGTAPKYGIRGIPTLLLFKNGEVASATKVGALSKGQLKEFLDANLA |
